The target in assay [1] is T1, denatured VLPs of BK polyomavirus VP-1 protein, serotype Ia (BK virus (BKPyV), serotype Ia, UniProt P03088 1-361).
T1 construct: also called Ia denatured; linearised VP-1 protein
T1 chain: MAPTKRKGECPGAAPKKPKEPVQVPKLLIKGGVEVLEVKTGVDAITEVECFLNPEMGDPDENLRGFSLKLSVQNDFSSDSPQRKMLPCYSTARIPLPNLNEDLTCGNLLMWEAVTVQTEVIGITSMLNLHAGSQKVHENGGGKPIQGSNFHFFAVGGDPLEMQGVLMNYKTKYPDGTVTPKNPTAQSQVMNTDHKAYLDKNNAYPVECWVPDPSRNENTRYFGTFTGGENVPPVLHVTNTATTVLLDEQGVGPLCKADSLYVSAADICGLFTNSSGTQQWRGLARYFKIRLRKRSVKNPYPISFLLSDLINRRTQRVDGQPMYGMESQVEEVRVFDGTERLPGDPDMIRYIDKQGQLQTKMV
The experiment in a line: ELISA on denatured VLP (carbonate pH 10.6 + DTT; threshold OD>0.5). In general terms: ELISA stands for enzyme-linked immunosorbent assay.
Experimental: The wells were then blocked for 1 hour at +37° C. with a PBS/SVF mixture. After dilution in a dilution buffer containing SVF, PBS and Tween® 20, the individual culture supernatants or purified antibodies were added for 1 hour at +37° C. The wells were washed four times in a row with Wash Buffer and a secondary anti-mouse peroxidase antibody was added to the 1/2000 dilution for 1 hour at +37° C. The wells were washed again four times in a row and the substrate was added for 30 minutes at room temperature. A stop solution was added and then each well was read by measuring the absorbance at 492 nm with a spectrophotometer. The value obtained for the average of the control wells (PBS in the first step) was subtracted from the optical density values obtained for each well (detection threshold: OD>0.5).

For assay [2], the target named is T2, virus-like particles (VLPs) of BK polyomavirus VP-1 protein, serotype Ia (BK virus (BKPyV), serotype Ia, UniProt P03088 1-361).
T2 construct: self-assembled native VLPs coated on ELISA plates; also called VLP Ia; BKV VP-1, serotype Ia
T2 chain: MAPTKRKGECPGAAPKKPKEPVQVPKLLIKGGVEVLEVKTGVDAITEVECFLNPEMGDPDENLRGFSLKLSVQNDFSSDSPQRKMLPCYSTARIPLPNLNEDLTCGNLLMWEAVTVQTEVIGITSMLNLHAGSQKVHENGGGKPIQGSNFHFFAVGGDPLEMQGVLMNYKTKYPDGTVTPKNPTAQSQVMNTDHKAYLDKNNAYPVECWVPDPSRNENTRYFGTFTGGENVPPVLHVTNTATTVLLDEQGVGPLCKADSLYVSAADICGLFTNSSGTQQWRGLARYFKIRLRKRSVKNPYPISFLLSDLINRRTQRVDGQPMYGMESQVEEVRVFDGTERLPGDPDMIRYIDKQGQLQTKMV
The experiment in a line: ELISA on coated VLP; supernatant 1/20.
Experimental: (§1) To do this, the VLPs produced were deposited at a concentration of 1 μg/mL in PBS and incubated overnight at +4° C. The wells were then blocked for 1 h at +37° C. with a PBS/FCS (phosphate-buffered saline/fetal calf serum) mixture. After dilution in a dilution buffer containing FCS, PBS and Tween® 20, the various hybridoma culture supernatants were added for 1 h at +37° C. The wells were washed four times in a row with Wash Buffer and a secondary anti-mouse antibody coupled to peroxidase was added to the 1:2000 dilution for 1 h at +37° C. The wells were washed four more times and the substrate (OPD (ortho phenylene diamine)+H₂O₂) was added for 30 min at room temperature. A stop solution (H₂SO₄ 4N) was then added and each well was read by measuring the absorbance at 492 nm with a spectrophotometer. The value obtained for the average of the control wells (PBS in the first step) is subtracted from the optical density values obtained for each well.

For assay [3], the target named is T3, virus-like particles (VLPs) of BK polyomavirus VP-1 protein, serotype Ib2 (BK virus (BKPyV), serotype Ib2, PA …, UniProt P03088 1-362).
T3 construct: native VLPs; also the immunogen; also called VLP Ib2; BK Ib2
T3 chain: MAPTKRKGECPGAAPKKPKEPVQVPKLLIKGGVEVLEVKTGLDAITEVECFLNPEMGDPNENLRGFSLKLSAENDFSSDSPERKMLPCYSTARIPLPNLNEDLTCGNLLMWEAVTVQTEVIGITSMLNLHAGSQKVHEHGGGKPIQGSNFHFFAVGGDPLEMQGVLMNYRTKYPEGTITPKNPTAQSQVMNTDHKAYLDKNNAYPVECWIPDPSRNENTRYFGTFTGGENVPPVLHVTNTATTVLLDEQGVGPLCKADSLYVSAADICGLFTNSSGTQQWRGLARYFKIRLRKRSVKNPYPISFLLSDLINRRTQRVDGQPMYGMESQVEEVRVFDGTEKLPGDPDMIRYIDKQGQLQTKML
Nature of the assay: ELISA on coated VLP; supernatant 1/20.
Experimental: as §1

The target of assay [4] is T4, virus-like particles (VLPs) of BK polyomavirus VP-1 protein, serotype II (BK virus (BKPyV), serotype II, UniProt P14996 1-362).
T4 construct: native VLPs; also called VLP II
T4 chain: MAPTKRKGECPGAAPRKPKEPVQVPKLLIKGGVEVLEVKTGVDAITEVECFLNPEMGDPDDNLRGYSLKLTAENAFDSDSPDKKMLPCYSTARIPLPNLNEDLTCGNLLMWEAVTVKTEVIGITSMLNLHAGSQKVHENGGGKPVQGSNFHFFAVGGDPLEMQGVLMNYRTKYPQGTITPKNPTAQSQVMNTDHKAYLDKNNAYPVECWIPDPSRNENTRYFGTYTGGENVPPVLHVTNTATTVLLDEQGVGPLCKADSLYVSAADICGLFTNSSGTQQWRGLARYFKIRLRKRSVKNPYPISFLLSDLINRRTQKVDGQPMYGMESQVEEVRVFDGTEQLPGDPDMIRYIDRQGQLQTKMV
The experiment in a line: ELISA on coated VLP; supernatant 1/20.
Experimental: as §1

In assay [5] the target is T5, virus-like particles (VLPs) of BK polyomavirus VP-1 protein, serotype IV (BK virus (BKPyV), serotype IV, UniProt P14996 1-362).
T5 construct: native VLPs; also called VLP IV
T5 chain: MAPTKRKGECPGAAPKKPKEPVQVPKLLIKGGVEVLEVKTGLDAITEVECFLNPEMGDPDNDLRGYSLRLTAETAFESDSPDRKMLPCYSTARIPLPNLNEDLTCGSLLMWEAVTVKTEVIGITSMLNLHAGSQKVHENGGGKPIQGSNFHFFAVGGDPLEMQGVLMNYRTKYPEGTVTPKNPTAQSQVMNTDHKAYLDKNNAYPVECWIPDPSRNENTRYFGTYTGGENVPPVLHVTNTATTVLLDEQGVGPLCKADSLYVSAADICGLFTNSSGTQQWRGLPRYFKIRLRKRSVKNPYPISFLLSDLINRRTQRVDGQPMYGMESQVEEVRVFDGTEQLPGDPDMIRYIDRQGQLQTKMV
The experiment in a line: ELISA on coated VLP; supernatant 1/20.
Experimental: as §1

Assay [6] has as its target T2, virus-like particles (VLPs) of BK …. Nature of the assay: ELISA on coated VLP; supernatant 1/80.
Experimental: as §1
The target of assay [7] is T3, virus-like particles (VLPs) of BK …. The experiment in a line: ELISA on coated VLP; supernatant 1/80.
Experimental: as §1
The target of assay [8] is T4, virus-like particles (VLPs) of BK …. Nature of the assay: ELISA on coated VLP; supernatant 1/80.
Experimental: as §1
Assay [9] addresses T5, virus-like particles (VLPs) of BK …. The experiment in a line: ELISA on coated VLP; supernatant 1/80.
Experimental: as §1
For assay [10], the target named is T3, virus-like particles (VLPs) of BK …. The experiment in a line: ELISA on coated VLP; supernatant 1/1 280.
Experimental: as §1
Assay [11] addresses T4, virus-like particles (VLPs) of BK …. The experiment in a line: ELISA on coated VLP; supernatant 1/1 280.
Experimental: as §1
Assay [12] has as its target T5, virus-like particles (VLPs) of BK …. The experiment in a line: ELISA on coated VLP; supernatant 1/1 280.
Experimental: as §1

B1: monoclonal antibody ‘18A2’ derived from hybridoma 18A2 (antibody, V domains shown)
VH: DVQLQESGPGLVKPSQSLSLTCSVTGYSITSGYYWNWIRQFPGNKLEWMGYISYDGSNNYNPSLKNRISITRDTSKNQFFLKLNSVTTEDTATYYCARWEGTTDYWGQGTTLTVSS
VL: not shown
notes: Mouse hybridoma antibody
As for B1, the “OD 492 nm” value in assay [1] worked out at 3.98 OD.

B2: monoclonal antibody ‘F6’ secreted by clone BK6A2F6 (antibody)
heavy: EVQLQQSGPELVKPGASVKISCKASGYSFTGYFMNWVKQSHGKSLEWIGRINPYNGDTFYNQKFKGKATLTVDKSSSTAHMELLSLTSEDSAVYYCGSYYYGDYFDYWGQGTTLTVSSAKTTPPSVYPLAPGSAAQTNSMVTLGCLVKGYFPEPVTVTWNSGSLSSGVHTFPAVLQSDLYTLSSSVTVPSSTWPSETVTCNVAHPASSTKVDKKIVPRDCGCKPCICTVPEVSSVFIFPPKPKDVLTITLTPKVTCVVVDISKDDPEVQFSWFVDDVEVHTAQTQPREEQFNSTFRSVSELPIMHQDWLNGKEFKCRVNSAAFPAPIEKTISKTKGRPKAPQVYTIPPPKEQMAKDKVSLTCMITDFFPEDITVEWQWNGQPAENYKNTQPIMDTDGSYFVYSKLNVQKSNWEAGNTFTCSVLHEGLHNHHTEKSLSHSPGK
light: […]
For the molecule B2, the “OD 492 nm” value in assay [2] is 3.23 OD; in assay [3], 1.22 OD; in assay [4], 1.65 OD; in assay [5], 3.16 OD; in assay [6] it was 3.26 OD; in assay [7] it was 0.59 OD. Besides, the “OD 492 nm” value in assay [8] was found to be 0.44 OD; in assay [9], 3.11 OD; in assay [10] it was 0.11 OD; in assay [11], 0.09 OD; in assay [12], 2.04 OD.

B3: monoclonal antibody ‘H6’ secreted by clone BK6A2H6 (antibody, V domains shown)
VH: EVQLQQSGPELVKPGASVKISCKASGYSFTGYFMNWVKQSHGKSLEWIGRINPYNGDTFYNQKFKGKATLTVDKSSSTAHMELLSLTSEDSAVYYCGSYYYGDYFDYWGQGTTLTVSS
VL: SIVMTQIPKFLLVSEGDRVTITCKASQSVSNDVAWYQQKSGQSPKLLIYYASNRYTGVPDRFTGSGYGTDFTFTISTVQAEDLAVYFCQQDYSSPLTFGAGTKLELKR
As to B3, the “OD 492 nm” value in assay [2] worked out at 3.06 OD; in [3], 0.82 OD; in assay [4] it was 0.86 OD; in assay [5], 3.21 OD; in [6], 3.13 OD; in [7] it was 0.49 OD. The “OD 492 nm” value in assay [8] stood at 0.22 OD; in assay [9], 3.14 OD; in [10], 0.14 OD; in assay [11], 0.08 OD; in assay [12], 0.91 OD.

Source of the values: patent US20220396612A1 (UNIVERSIT DE TOURS, published 2022).
